Consider one protein from patent US20140065645.

In the data set the target is T1, FITC-labeled polypeptide linker, coupled to a bead.
T1 chain: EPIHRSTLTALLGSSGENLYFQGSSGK

B1: Tobacco etch virus (TEV) protease (protein)
chain: GESLFKGPRDYNPISSTICHLTNESDGHTTSLYGIGFGPFIITNKHLFRRNNGTLLVQSLHGVFKVKNTTTLQQHLIDGRDMIIIRMPKDFPPFPQKLKFREPQREERICLVTTNFQTKSMSSMVSDTSCTFPSSDGIFWKHWIQTKDGQCGSPLVSTRDGFIVGIHSASNFTNTNNYFTSVPKNFMELLTNQEAQQWVSGWRLNADSVLWGGHKVFMSKPEEPFQPVKEATQLMNELVYSQ
For the protein B1, the Intensity of Signal (FITC fluorescence of the linker-bead complex after 1 hour with TEV protease, 1:1 by mass) is 10.3; the Intensity of Signal (FITC fluorescence of the linker-bead complex after 1 hour with TEV protease, 1:2 by mass) was 9; the Ratio of Signal/Background Signal (1:1 TEV protease) turned out to be 1.24; the Ratio of Signal/Background Signal (1:2 TEV protease) came out at 1.08. Also, the “cleavage of the polypeptide linker” value is reported as “Most polypeptide linkers were cleaved when the mass of the added enzyme was twice the mass of the polypeptide linker”.
